Data as given in the Immune Epitope Database (IEDB).
One block for each sequence: values may come before it.

How the values were obtained:
HLA-A*30:01 = assay: IEDB peptide-MHC binding, purified MHC/competitive/radioactivity; filed as Kd, often an IC50 or EC50 that approximates it; ≥ and ≤ were set here for values at or beyond the usual limits of such assays
HLA-A*23:01 = assay: as above
HLA-A*30:02 = assay: as above
HLA-A*01:01 = assay: as above
HLA-A*24:02 = assay: as above
HLA-A*26:01 = assay: as above
HLA-A*29:02 = assay: as above
HLA-B*58:01 = assay: IEDB peptide-MHC binding, purified MHC/direct/fluorescence; filed as Kd, often an IC50 or EC50 that approximates it; ≥ and ≤ were set here for values at or beyond the usual limits of such assays
HLA-B*57:01 = assay: as above
HLA-B*44:02 = assay: IEDB peptide-MHC binding, purified MHC/competitive/radioactivity; filed as Kd, often an IC50 or EC50 that approximates it; ≥ and ≤ were set here for values at or beyond the usual limits of such assays; conditions: source organism: Dengue virus 2 Jamaica/1409/1983
HLA-A*02:01 = assay: IEDB peptide-MHC binding, purified MHC/direct/fluorescence; filed as Kd, often an IC50 or EC50 that approximates it; ≥ and ≤ were set here for values at or beyond the usual limits of such assays; conditions: source organism: Salmonella enterica subsp. enterica serovar Typhimurium
HLA-A*69:01 = assay: as above; conditions: source organism: Salmonella enterica subsp. enterica serovar Typhimurium
HLA-A*11:01 [1] = assay: as above
HLA-A*11:01 [2] = assay: IEDB peptide-MHC binding, purified MHC/competitive/radioactivity; filed as Kd, often an IC50 or EC50 that approximates it; ≥ and ≤ were set here for values at or beyond the usual limits of such assays; conditions: source organism: Dengue virus 2 Jamaica/1409/1983
HLA-A*03:01 = assay: as above; conditions: source organism: Dengue virus 2 Jamaica/1409/1983
HLA-B*46:01 = assay: IEDB peptide-MHC binding, purified MHC/competitive/fluorescence; filed as Kd, often an IC50 or EC50 that approximates it; ≥ and ≤ were set here for values at or beyond the usual limits of such assays
HLA-A*02:03 = assay: IEDB peptide-MHC binding, purified MHC/competitive/radioactivity; filed as Kd, often an IC50 or EC50 that approximates it; ≥ and ≤ were set here for values at or beyond the usual limits of such assays; conditions: source organism: Vaccinia virus WR
HLA-A*02:02 = assay: as above; conditions: source organism: Vaccinia virus WR
HLA-A*02:06 = assay: as above; conditions: source organism: Vaccinia virus WR
HLA-B*07:02 = assay: IEDB peptide-MHC binding, purified MHC/direct/fluorescence; filed as Kd, often an IC50 or EC50 that approximates it; ≥ and ≤ were set here for values at or beyond the usual limits of such assays; conditions: source organism: Mycobacterium avium 104
HLA-B*51:01 = assay: IEDB peptide-MHC binding, purified MHC/competitive/fluorescence; filed as Kd, often an IC50 or EC50 that approximates it; ≥ and ≤ were set here for values at or beyond the usual limits of such assays; conditions: source organism: Mycobacterium tuberculosis C
[3] = source organism: Dengue virus 4 Dominica/814669/1981
[4] = source organism: Vaccinia virus WR
[5] = source organism: SARS coronavirus Tor2
[6] = source organism: Burkholderia mallei
[7] = source organism: Mammarenavirus machupoense
[8] = source organism: Mammarenavirus whitewaterense
[9] = source organism: Yellow fever virus
[10] = source organism: Dengue virus 2 Jamaica/1409/1983
[11] = source organism: Mammarenavirus juninense
[12] = source organism: Cryptosporidium hominis
[13] = source organism: Mammarenavirus guanaritoense
[14] = source organism: Dengue virus 4 Philippines/H241/1956
[15] = source organism: Dengue virus 1 Brazil/97-11/1997
[16] = source organism: Dengue virus 3 Martinique/1243/1999

Sequence: KGKRALTPPV
Kd (HLA-A*30:01; [3]): 12.4 nM

Sequence: KQRLTNLEK
Kd (HLA-A*30:01; [4]): 0.951 nM

Sequence: KTIVESCGNY
Kd (HLA-A*23:01; [5]): ≥ 70000 nM
Kd (HLA-A*30:02; [5]): 1.69 nM
Kd (HLA-A*01:01; [5]): 240 nM
Kd (HLA-A*24:02; [5]): ≥ 70300 nM
Kd (HLA-A*26:01; [5]): 1350 nM
Kd (HLA-A*29:02; [5]): 844 nM

Sequence: KVKKLNRCA
Kd (HLA-A*30:01; [4]): 3.12 nM

Sequence: KVKWLQNSV
Kd (HLA-A*30:01; source organism: Vaccinia virus Copenhagen): 0.497 nM

Sequence: LAASVFFTF
Kd (HLA-B*58:01; [6]): 203 nM
Kd (HLA-B*57:01; [6]): 2140 nM

Sequence: LCMLNNSLYY
Kd (HLA-A*23:01; [7]): ≥ 40400 nM
Kd (HLA-A*30:02; [7]): 181 nM
Kd (HLA-A*01:01; [7]): 367 nM
Kd (HLA-A*24:02; [7]): ≥ 55200 nM
Kd (HLA-A*26:01; [7]): ≥ 69700 nM
Kd (HLA-A*29:02; [7]): 7.19 nM

Sequence: LENLMWKQI
Kd (HLA-B*44:02): 22.2 nM

Sequence: LGYPFAWFL
Kd (HLA-A*02:01): 831 nM
Kd (HLA-B*58:01; source organism: Salmonella enterica subsp. enterica serovar Typhimurium): 102 nM
Kd (HLA-A*69:01): 307 nM

Sequence: LLQFIVFLL
Kd (HLA-A*23:01; [8]): 18800 nM
Kd (HLA-A*24:02; [8]): ≥ 77500 nM
Kd (HLA-A*29:02; [8]): ≥ 23400 nM

Sequence: LTLKGTSYK
Kd (HLA-A*11:01 [1]; [9]): 5.6 nM

Sequence: LTSRATWAK
Kd (HLA-A*11:01 [2]): 44.8 nM
Kd (HLA-A*03:01): 58.6 nM
Kd (HLA-A*30:01; [10]): 176 nM

Sequence: LVIASLPLF
Kd (HLA-A*23:01; [11]): 19.1 nM
Kd (HLA-A*24:02; [11]): 484 nM
Kd (HLA-A*29:02; [11]): 1210 nM

Sequence: LYIIKLVFLW
Kd (HLA-A*23:01; [5]): 0.165 nM
Kd (HLA-A*30:02; [5]): ≥ 85700 nM
Kd (HLA-A*01:01; [5]): 13600 nM
Kd (HLA-A*24:02; [5]): 20.9 nM
Kd (HLA-A*26:01; [5]): 1170 nM
Kd (HLA-A*29:02; [5]): ≥ 31800 nM

Sequence: MSFSDTFEM
Kd (HLA-B*58:01; [12]): 0.6 nM
Kd (HLA-B*57:01; [12]): 55.3 nM
Kd (HLA-B*46:01; source organism: Cryptosporidium parvum Iowa II): 205 nM

Sequence: MTSTRTIIL
Kd (HLA-A*02:03): 840 nM
Kd (HLA-A*02:02): 1340 nM
Kd (HLA-A*02:06): 6790 nM
Kd (HLA-A*30:01; [4]): 267 nM

Sequence: PYNSVTDTI
Kd (HLA-A*23:01; [5]): 20.3 nM
Kd (HLA-A*30:02; [5]): ≥ 81100 nM
Kd (HLA-A*01:01; [5]): ≥ 78100 nM
Kd (HLA-A*24:02; [5]): 7.16 nM
Kd (HLA-A*26:01; [5]): ≥ 77900 nM
Kd (HLA-A*29:02; [5]): 6820 nM

Sequence: QQICSNFKI
Kd (HLA-A*23:01; [13]): 98.8 nM
Kd (HLA-A*24:02; [13]): 13100 nM
Kd (HLA-A*29:02; [13]): 3770 nM

Sequence: RGRIGRNPA
Kd (HLA-A*30:01; [14]): 32.3 nM

Sequence: RHERGRPLLF
Kd (HLA-A*23:01; [14]): 248 nM

Sequence: RLKDYQHFV
Kd (HLA-A*30:01; [4]): 0.394 nM

Sequence: RTLAKEGIK
Kd (HLA-A*03:01): 30 nM
Kd (HLA-A*30:01; [10]): 217 nM

Sequence: RVFNEYGFV
Kd (HLA-A*30:01; [4]): 142 nM

Sequence: STRVGMGEA
Kd (HLA-A*30:01; [15]): 5.02 nM

Sequence: SVKCTHPLV
Kd (HLA-A*30:01; [4]): 0.968 nM

Sequence: SYTQMCDHRL
Kd (HLA-A*24:02; [15]): 184 nM

Sequence: TAVDFGNSY
Kd (HLA-B*46:01; [9]): 116 nM

Sequence: TPKFTRMVV
Kd (HLA-B*07:02): 104 nM
Kd (HLA-B*51:01): ≥ 20000 nM

Sequence: TPKGPKVKY
Kd (HLA-A*11:01 [1]; source organism: SARS-CoV1): ≥ 46100 nM

Sequence: TYQNKVVKV
Kd (HLA-A*23:01; [16]): 6520 nM

Sequence: VGIPTHRHL
Kd (HLA-A*23:01; [7]): 14000 nM
Kd (HLA-A*30:02; [7]): 14300 nM
Kd (HLA-A*01:01; [7]): ≥ 69400 nM
Kd (HLA-A*24:02; [7]): ≥ 40300 nM
Kd (HLA-A*26:01; [7]): ≥ 77900 nM
Kd (HLA-A*29:02; [7]): ≥ 78900 nM

Sequence: VMMSAPPAEY
Kd (HLA-A*23:01; [5]): ≥ 39900 nM
Kd (HLA-A*30:02; [5]): 4.31 nM
Kd (HLA-A*01:01; [5]): 154 nM
Kd (HLA-A*24:02; [5]): ≥ 35600 nM
Kd (HLA-A*26:01; [5]): 9020 nM
Kd (HLA-A*29:02; [5]): 3.16 nM

Sequence: VSSWEEVPY
Kd (HLA-A*30:02; [15]): 1860 nM
Kd (HLA-A*01:01; [15]): 269 nM

Sequence: VTRKHMILV
Kd (HLA-A*30:01; [14]): 19.4 nM

Sequence: VTTWENVPY
Kd (HLA-A*30:02; [16]): 10.9 nM
Kd (HLA-A*01:01; [16]): 590 nM

Sequence: VTYKCPLLV
Kd (HLA-A*01:01; [3]): 2190 nM

Sequence: WFFDLPLPW
Kd (HLA-A*23:01; [16]): 24 nM
Kd (HLA-A*24:02; [16]): 62.2 nM

Sequence: WFFDLPLPWT
Kd (HLA-A*30:01; [16]): 16300 nM

Kd (HLA-A*01:01; source organism: Homo sapiens): 1.8 nM
Sequence: YTDFPCQYV

Sequence: YTRVLKPSV
Kd (HLA-A*30:01; [4]): 738 nM

Sequence: YWVSNASGNI
Kd (HLA-A*23:01; [10]): 1330 nM

Sequence: YYMATLKNVT
Kd (HLA-A*24:02; [14]): 1540 nM
